Laboratory results published in the nanobody polyreactivity screen of Harvey et al. (2022).

Assay: yeast display, Sf9 membrane polyspecificity reagent, FACS + sequencing; frameworks hold sequencing errors
Method in brief: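 Galactose induction of a Saccharomyces cerevisiae BJ5465 synthetic nanobody display library ran 36–48 hours. The cells were then stained for 1 hour at 4 °C with 10% biotinylated, detergent-solubilized Sf9 membrane reagent, pulled down on streptavidin microbeads and FACS-sorted into low and high (top ~1%) gates on expression and reagent-binding fluorescence. Labels for polyreactivity follow the gate of origin.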

Row | Sequence | polyreactivity (PSR sort gate)
1 | QVQLVESGGGLVQAGGSLRLSCAASGRIRPRNAMGWYRQAPGKERELVAGISSDGSTNYADSVKGRFTISRDNAKNTVYLQMNSLKQEDTAVYYCAADGVYDPNLYGYWGQGTQLTVSS | low polyreactivity
2 | QVQLVESGGGLVQAGGSLRLSCAASGRISAYAMGWYRQAPGKERELVAAISSRGGRTYYADSVKGRFTISRDNAKTTVYLQMNSLKPEDTAVYYCNALRPWEFDHWGHGTQVTVSS | high polyreactivity
3 | QVQLVESGGGLVQAGGSLRLSCAASGRISAYYAMGWYRQAPGKERELVAVITSGGRTNYADSVKGRFTISRDNAKNTVYLQMNSLKPEDTAVYYCAARSRVSPRYDYWGQGTQVTVSS | high polyreactivity
4 | QVQLVESGGGLVQAGGSLRLSCAASGRISGFNAMGWYRQAPGKDRELVAAISYRGGSTSADSVKGRFTISRDNAKNTVYLQMNSLKPEDTAVYYCAADVRFYQYSDYDYWGQGTQVTVSS | low polyreactivity
5 | QVQLVESGGGLVQAGGSLRLSCAASGRISGRNAMGWYRQAPGKERELVAVITRGDTNYADSVKGRFTISRDNAKNTVYLQMNSLKPEDTAVYYCAKEPLASGWGYDYWGQGTQVTVSS | high polyreactivity
6 | QVQLVESGGGLVQAGGSLRLSCAASGRISGRYAMGWYRQAPGKERELVAAITGRGGGTFYADSVKGRFTISRDNAKNTVYLQMNSLKPEDTAVYYCNTDYGSSYNYCGQGTQVTVSS | high polyreactivity
7 | QVQLVESGGGLVQAGGSLRLSCAASGRISGSYVMGWYRQAPGKESELVAGISGRGGSTYYADSVKGRFTISRDNAKNTVYLQMYSLKPEDTAVYYCAVVDRTSKGNSYYWGQGTQVTVSS | high polyreactivity
8 | QVQLVESGGGLVQAGGSLRLSCAASGRISGVNAMGWYRQAPGKERELVATISGSGGRTYYADSVKGRFTISRDNAKNTVYLQMNSLKPEDTAVYYCAAGPPRADYDYWGQGTQVTVSS | low polyreactivity
9 | QVQLVESGGGLVQAGGSLRLSCAASGRISKKYAMGWYRQAPGKERELVAAIRGSGGGTYYADSVKGRFTISRDNAKNTVYLQMNSLKPEDTAVYYCNAASRHSTAPITGYDSWGQGTQVTVSS | high polyreactivity
10 | QVQLVESGGGLVQAGGSLRLSCAASGRISKRYTMGWYRQAPGKERELVAAITNSGGTTYYADSVKGRFTISRDNAKNTVYLQMNSLKPEDTAVYYCNKPYGAETAHREFDYWGQGTQVTVSS | low polyreactivity
11 | QVQLVESGGGLVQAGGSLRLSCAASGRISRCYVMGWYRQEPGKERELVAAITWNSGSTYYADSVKGRFTISRDNAKNTVYLQMNSLKPEDTAVYYCAAVLYSRYQQYDFWGQGTQVTVSS | high polyreactivity
12 | QVQLVESGGGLVQAGGSLRLSCAASGRISSGYAMGWYRKAPGKERELVAAISSIGGRTYYADSVKGRFTISRDNANNTVYLQMNSLKPEDTAVYYCNAGTYRRIGGYDYWGQGTQVTVSS | high polyreactivity
13 | QVQLVESGGGLVQAGGSLRLSCAASGRISSQYAMGWYRQAPGKERELVAAISTSGDRTYYADSVKGRFTISRDTAKNTVYLEMNSLKPEDTAVYYCAKDCPYTYGRDIYEYWGQGTQVTVSS | low polyreactivity
14 | QVQLVESGGGLVQAGGSLRLSCAASGRISVFNAMGWYRQAPGKERELVAAITSGGSTNYADSVKGRFTISRDNAKNTVYLQMNSLKPEDTAVYYCNADVYHSHEPHYDYWGQGTQVTVSS | low polyreactivity
15 | QVQLVESGGGLVQAGGSLRLSCAASGRISVRIYAMGWYRQAPGKERELVAIIARSGGSTYYADSVKGRFTISRDNAKHTVYLPMNSLKPADTAVYYCAAGYRTRRGLGYYYWGQGTQVTVSS | high polyreactivity
16 | QVQLVESGGGLVQAGGSLRLSCAASGRISVYNMGWYRQAPGKERELVAAISNGGSTNYADSVKGRFTISRDNAKNTVYLQMNSLKPEDTAVYYCNRRVPYSFYSRGYYYWGQGTQVTVSS | high polyreactivity
17 | QVQLVESGGGLVQAGGSLRLSCAASGRISWVYPMGWYRKAPGKERELVAAITFSGGSTYYADSVKGRFTISRDNAKNSVYLQMNSLKPEDTAVYYCAADVLAIYSHRYYRYDSWGQGTQVTVSS | high polyreactivity
18 | QVQLVESGGGLVQAGGSLRLSCAASGRISYGYAMGWYRQAPGKERELVAAISRSGGTTYYADSVKGRFTISRDNAKNTVYLQMNSLKPEDTAVYYCNRVWYATDFVNTMGYWGQGTQVTVSS | low polyreactivity
19 | QVQLVESGGGLVQAGGSLRLSCAASGRISYGYVMGWYRQAPGKERELVAAISRTGGNTYYADSVKGRFTISRDNAKNTVYLQMNSLKPEDTAVYYCAKVYKTGITQYDYWGQGTQVTVSS | high polyreactivity
20 | QVQLVESGGGLVQAGGSLRLSCAASGRISYYYMGWYRQAPGKERELVAAISWNGGRTYYADSVKGRFTISRDNAKNTVYLQMNSLKPEDTAVYYCAARFYSRAFWPAYYYWGQGTQVTVSS | high polyreactivity
21 | QVQLVESGGGLVQAGGSLRLSCAASGRITFSHNTMGWYRQAPGKERELVAAISSGGRTNYADSVKGRFTISRDNAKNTVYLQMNSLKPEDTAVYYCARESHYDFIYDGMDYWGQGTQVTVSS | low polyreactivity
22 | QVQLVESGGGLVQAGGSLRLSCAASGRITGIYAMGWYRPAPGKERELVAAITWRGGRTCYADSVKGRFTISRDNAKNSVYLQMNSLKPEDTAVYYCAAELQGAYYFAYYYWGQGTQVTVSS | high polyreactivity

Row | Sequence | polyreactivity (PSR sort gate)
23 | QVQLVESGGGLVQAGGSLRLSCAASGRITVFYTMGWYRQAPGKERELVATITRSGSRTYYADSVKGRFTISRDNAKNTVYLQMNSLKPEDTAVYYCARSQAVYDGWFAKFGYWGQGTQVTVSS | low polyreactivity
24 | QVQLVESGGGLVQAGGSLRLSCAASGRIVEVYAMGWYRQARGKERELVAAISSGGGSTYYADSVKGRFTISRDNAKNTVYLQMNSQKPEDTAVYYCAARKPSVRGAPYYYWGQGTQVTVSS | high polyreactivity
25 | QVQLVESGGGLVQAGGSLRLSCAASGRIVGRHALGWYRQAPGKERELVAAMSSSGGTYYADSVKGRFTISRDKAKNTLYLQMNSLKPEDTAVYYCNARVRTQQRWVDYWGQGTQVTVSS | high polyreactivity
26 | QVQLVESGGGLVQAGGSLRLSCAASGRIVRPNAMGWYRQAPGKERELVAAIRSTVGSTFYADSVKGRFTISRDNAKNTVYLEMISLKPEDTAVYDCAAGTSRQFFYWGQGTQVTVAS | low polyreactivity
27 | QVQLVESGGGLVQAGGSLRLSCAASGRIVSGYAMVWYRQAPGKERELVAAITSGGSTNYADSVKGRFTLSRDNAKNTVYLQMNSLKPEDTAVYYCAADSREVSTTAYYYWGQGTQVTVSS | low polyreactivity
28 | QVQLVESGGGLVQAGGSLRLSCAASGRIWGYAMGLYRQAPGKARELVATITYNSGRTYYADSVKGRFTISRDNAKNTVYLQMNSLKPEDTAVYYCNKDFDGRFDYWGQGTQVNVSS | high polyreactivity
29 | QVQLVESGGGLVQAGGSLRLSCAASGRIYFNAMGWYRQAPGKERELLADISWIGGSTYYADSVKGRFTISRDNGKNTVYLQMNRLKPEYTAVYYCAAVFLSWWDSYDFWGQGTQVTVSS | high polyreactivity
30 | QVQLVESGGGLVQAGGSLRLSCAASGRIYGLYAMGWYRQAPGKERELVAAISEGGGSTNYADSEKGRFTISRDNAKNTFYLQMNSLKPDDTAVYYCAATYRTGVRRYYSWGQGTQVTVSS | low polyreactivity
31 | QVQLVESGGGLVQAGGSLRLSCAASGRIYGVYVMGWSRQAPGKERELVAAISWGGGTYYADSVKGRFTISRDNSKNTVTLKMNSLKPEDTAVYYCNAESYYTMYYWGQGTQVTVSS | low polyreactivity
32 | QVQLVESGGGLVQAGGSLRLSCAASGRIYIDYAMGWYRQAPGKERELVATISESGGSTYYADSVKGRITISRDNAKNTVYLQMNSLKPEDTAVYYCAVDDRSGTVYFYTKFDYWGQGTQVTVSS | low polyreactivity
33 | QVQLVESGGGLVQAGGSLRLSCAASGRIYKRYDMGWYRQAPGKERELVAAITGTGGSTYYADSVKGRFTISRDNAKNTVYLQMNSLKPEDTAVYYCAARLYNTYSGFAFGYWGQGTQVTVSS | high polyreactivity
34 | QVQLVESGGGLVQAGGSLRLSCAASGRIYNSNAMGWYRQAPGKERQLVAAITTSGASTYYADSVKGRFTISRDNAKNTVYLQMNSLKPEDTSVYYCATYAVVYPFAMDYWGQGTQVTVSS | low polyreactivity
35 | QVQLVESGGGLVQAGGSLRLSCAASGRIYRENAMGWYRQAPGKEREFVAVISISDASTYYADSVKGRFTISRDNAKNTVYLQMNSLKPVDTAVYYCAADLTDFLYVSSDFWGQGTQVTVSS | low polyreactivity
36 | QVQLVESGGGLVQAGGSLRLSCAASGRIYTMGWYRQAPGKERELVAAISKSGGSTSYADSVKGRFTISRDNAKNTVYLQMNSLKPEDTAVYYCAALHYGRYRMDYWGQGTQVTVSS | high polyreactivity
37 | QVQLVESGGGLVQAGGSLRLSCAASGRLFKDNAMGGYRQAPGKERELVATIDSGGDTNYADSVKGRFTISRDNAKNTVYLQMNSLKPEDTAVYYCNTAGRGGIPSGFDYWGQGTQVTVSS | low polyreactivity
38 | QVQLVESGGGLVQAGGSLRLSCAASGRLFKRYNMGWYRQGPGKDRELVAAIRSGGSTNYADSVKGRFTISRDNAKNTVYLPMNSLKPEDTAVYYCAARSTAYRGGSYAYDYWGQGTQVTVSS | high polyreactivity
39 | QVQLVESGGGLVQAGGSLRLSCAASGRLFSRYAMGWNRQAPGQQRELVAAITRGGGSTYYADSVKGRFTISRDNAKNTVYLQMNSLKPEDTAVYYCNKASVQYYGDVYWGQGTQVTVSS | high polyreactivity
40 | QVQLVESGGGLVQAGGSLRLSCAASGRLFYYNAMGWYRQAPGKERELVAAISWSGGSTYYADSVKGRFTISRDNAKNTVYLQMNSLKPEDTAVYYCAVDVYGYTPRPTREPLIYEYWGQGTQVTVSS | low polyreactivity
41 | QVQLVESGGGLVQAGGSLRLSCAASGRLLGFNVMGWYRQAPGKERELVAAITTSGGSTYYADSVKGRFTISRDNAKNTVYLQMHSLKPEDTAVYYCAAVKVQITLLHGDDYWGQGTQVTVSS | high polyreactivity
42 | QVQLVESGGGLVQAGGSLRLSCAASGRNFFRYAMGWYRQAPGKERELVAAISRSGGRTYYADSVKGRCTLSRDNAKNTVFLQMNSLNREDTAVYYCAVRYRQYSQTVASDYGYWGPGTQVTVSS | high polyreactivity
43 | QVQLVESGGGLVQAGGSLRLSCAASGRNFGYNAMGWYRQAPGKERELVAAITTSGGSTYYADSVKGRFTISRDNAKNTVYLQMNSLKPEDTAVYYCARDSLQVLYPYASDDSWGQGTQVTVSS | low polyreactivity
